In article PMC2173223 (The Journal of Cell Biology, 2002):

Molecular target: T1, Tim13p (recombinant, co-expressed with Tim8p in E. coli) (S. cerevisiae, UniProt P53299 1-105)
T1 sequence (looked up): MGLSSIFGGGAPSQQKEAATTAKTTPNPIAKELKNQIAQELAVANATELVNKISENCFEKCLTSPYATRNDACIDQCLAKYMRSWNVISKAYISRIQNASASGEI
Test: quantitative amino acid analysis

B1: Tim8p (recombinant, co-expressed with Tim13p in E. coli) (natural protein, S. cerevisiae, UniProt P57744 1-87, looked up)
chain: MSSLSTSDLASLDDTSKKEIATFLEGENSKQKVQMSIHQFTNICFKKCVESVNDSNLSSQEEQCLSNCVNRFLDTNIRIVNGLQNTR
**Q.** With B1 as the binder, how does the “stoichiometry N” value read?
**A.** 1 molar ratio
